Experiment [1] addresses T1, p32 or gC1q receptor (human, UniProt Q07021 74-282).
T1 construct: whole, on cells; Endogenous protein on cell lines; also called p32 receptor; cell surface p32
T1 sequence (looked up): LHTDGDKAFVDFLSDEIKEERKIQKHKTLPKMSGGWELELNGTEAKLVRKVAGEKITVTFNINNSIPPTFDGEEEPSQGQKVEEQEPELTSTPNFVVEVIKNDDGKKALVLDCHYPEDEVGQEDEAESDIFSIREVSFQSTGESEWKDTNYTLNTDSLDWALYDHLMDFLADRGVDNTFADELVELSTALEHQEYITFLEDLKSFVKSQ
Description: free LyP-1 (5 to 20 µM) as competitor on HeLa cells, read out as GFP silencing.
Description: For the initial screen, HeLa cells stably expressing destabilized GFP were cultured in 96-well plates to ˜70-80% confluence. siRNA (0-100 nM) was incubated with 20-fold molar excess of tetramethylrhodamine-labelled tandem peptides in PBS for 10-15 min at room temperature, then incubated over cells in DMEM for 4 h at 37° C., after which the medium was replaced. The complexes were then added to HeLa cell cultures and incubated for 4 h at 37° C., after which the medium was replaced with 100 μL of fresh medium with 10% serum.

Experiment [2] addresses T1, p32 or gC1q receptor. Description: TAMRA-labeled tandem peptide incubated on MDA-MB-435 cells with p32 shRNA or control shRNA.

Bridge positions count the residues as written; N and C are the ends. Ends that are not written are not given here. * marks the point of attachment. Myristoyl = CCCCCCCCCCCCCC(=O)*

Turning to CGNKRTRGC (disulfide 1-9 (inferred), also called unlabeled LyP-1 peptide) [free LyP-1 peptide], the binding result in experiment [1] was “binds”.

B1: TP-ARAL tandem peptide (peptide)
peptide: Myristoyl-GWTLNSAGYLLGKINLKALAALAKKILGGGGARALPSQRSR
modifications: also: TAMRA label, place not given here
notes: also called untargeted tandem peptide; control peptide (TP-ARAL)
As for B1, the binding result in experiment [2] is “no binding”.

(Values after US20110256088A1 (MIT, published 2011).)
